± gives the standard deviation of the averaged measurements.
Test system: ATP
Assay: switch fluorescence ratio, 500 uM ATP over buffer (Cy3 cluster intensity, sum of 5 cycles each) (fold (ratio)); higher = stronger signal-on switching upon ATP binding; sequences stand for … in TCGTCGGCAGCGTCAGATGTGTATAAGAGACAGTTTTTTTTTTTTTTTTTTTTTTTTT…TC
Conditions: aptamer strand: ATP DNA aptamer (quencher-CACCTGGGGGAGTATTGCGGAGGAAGG + anchor), 100 nM annealed; ATP concentration: 500 uM
Method in brief: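 Between each of five buffer/ATP cycles, the flow-cell was stripped with NaOH and re-annealed. Each cycle imaged Cy3-labelled switching-strand clusters, annealed to 100 nM quencher-labelled ATP aptamer on a modified Illumina MiSeq flow-cell, first in selection buffer and then after 15 min with 500 uM ATP at 22 °C. The fluorescence ratio is summed target-cycle over summed buffer-cycle Cy3 intensity per cluster, averaged per switch-domain sequence, with clusters outside 100-1000 RFU excluded.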
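Note: ATP exposure 15 min at 22 °C before imaging.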

Sequence	switch fluorescence ratio
TATGGCGCAT	0.993 ± 0.043
TATGGCTGTG	1.02 ± 0.06
TATGGGAAGC	1.03 ± 0.025
TATGGGCGTT	1 ± 0.011
TATGGGGATG	1 ± 0.024
TATGGGGGGA	1.02 ± 0.046
TATGGGGTCA	0.979 ± 0.018
TATGGTCAGT	0.968 ± 0.047
TATGGTTCGC	0.997 ± 0.055
TATGGTTTAA	0.975 ± 0.042
TATGGTTTGG	0.987 ± 0.028
TATGGTTTTC	1.01 ± 0.084
TATGTACGAT	1.05 ± 0.059
TATGTACTGT	1.09 ± 0.03
TATGTATTCT	1 ± 0.017
TATGTCAAG	1.02 ± 0.016
TATGTCAAGC	0.96 ± 0.038
TATGTCACAA	1.03 ± 0.014
TATGTCCGCT	1.05 ± 0.058
TATGTCTTAT	0.983 ± 0.027
TATGTGAGGA	0.989 ± 0.025
TATGTGATCT	0.9762 ± 0.0052
TATGTGGGCC	0.97 ± 0.041

Sequence	switch fluorescence ratio
TATGTTAAAG	0.996 ± 0.017
TATGTTAGGC	1.018 ± 0.01
TATGTTAGTT	1.01 ± 0.019
TATGTTTCGG	0.98 ± 0.011
TATTAAGTGC	0.955 ± 0.039
TATTAATGCT	1.028 ± 0.0052
TATTAATTCG	1.01 ± 0.032
TATTAGAATC	0.994 ± 0.026
TATTAGTGAA	1.01 ± 0.013
TATTAGTGCT	0.977 ± 0.033
TATTAGTTGC	1 ± 0.034
TATTATGAAT	0.999 ± 0.0024
TATTATGGAG	0.988 ± 0.021
TATTATTTCA	0.991 ± 0.024
TATTCACATT	0.994 ± 0.024
TATTCACGGG	1.0859 ± 0.00034
TATTCACTTG	1.04 ± 0.025
TATTCAGATA	0.9773 ± 0.008
TATTCAGCTA	1.07 ± 0.099
TATTCATTTG	1.027 ± 0.0068
TATTCCAATA	0.995 ± 0.03
TATTCGATTT	1.032 ± 0.0016
TATTCGGTTT	0.9889 ± 0.0048

Sequence	switch fluorescence ratio
TATTCGTTTT	0.989 ± 0.011
TATTCTAAAT	1.01 ± 0.016
TATTCTAGAG	0.989 ± 0.044
TATTGAGGGT	0.981 ± 0.034
TATTGCGGCC	1.02 ± 0.026
TATTGCTGCT	0.983 ± 0.032
TATTGGAGGG	0.974 ± 0.019
TATTGGCTTC	0.992 ± 0.018
TATTGGGAAA	1.06 ± 0.045
TATTGGGATA	1.01 ± 0.027
TATTGGGCAG	1.01 ± 0.023
TATTGGGCAT	0.985 ± 0.018
TATTGGGGA	0.958 ± 0.011
TATTGGGTAA	1.11 ± 0.14
TATTGGGTGA	0.99228 ± 0.00097
TATTGGGTGT	1.034 ± 0.0014
TATTGTACTC	1.03 ± 0.018
TATTGTAGGG	0.97 ± 0.013
TATTGTATGA	1.029 ± 0.0049
TATTGTCAGA	1.01 ± 0.019
TATTGTCCTT	1.019 ± 0.0056
TATTTAAGGT	1 ± 0.02
TATTTACGCT	1.05 ± 0.025

Sequence	switch fluorescence ratio
TATTTACTCG	1.05 ± 0.073
TATTTAGAAG	1.02 ± 0.054
TATTTAGGAG	0.999 ± 0.021
TATTTAGGCG	0.99 ± 0.064
TATTTAGGTA	1.022 ± 0.0031
TATTTAGGTG	1.11 ± 0.018
TATTTATAGT	1.02 ± 0.013
TATTTATCTT	0.989 ± 0.021
TATTTATGGG	0.978 ± 0.023
TATTTCTGAT	0.988 ± 0.016
TATTTCTTT	0.99 ± 0.026
TATTTGAGCT	1.03 ± 0.037
TATTTGGATA	1.05 ± 0.1
TATTTGGCTA	0.983 ± 0.045
TATTTGGGCG	1.053 ± 0.0059
TATTTGTACG	1.018 ± 0.0046
TATTTGTAGT	1.01 ± 0.039
TATTTGTCGG	1.0172 ± 0.00047
TATTTGTTAG	0.997 ± 0.031
TATTTTACTA	1.01 ± 0.032
TATTTTAGAG	0.966 ± 0.018
TATTTTAGGA	0.9743 ± 0.003
TATTTTGCGC	1.02 ± 0.026

Sequence	switch fluorescence ratio
TATTTTGGCG	0.986 ± 0.025
TATTTTTCGC	0.967 ± 0.015
TATTTTTCTC	0.983 ± 0.034
TATTTTTGGT	0.986 ± 0.021
TATTTTTTCG	0.987 ± 0.027
TATTTTTTGG	1.02 ± 0.033
TCAAAAAATT	1.02 ± 0.037
TCAAACCGCA	1.91 ± 0.16
TCAAACGAC	1.08 ± 0.011
TCAAAGGGCG	0.99 ± 0.049
TCAAAGGTAC	1.04 ± 0.0092
TCAAAGGTGT	1.22 ± 0.14
TCAAATAGGC	1.016 ± 0.01
TCAAATCGGT	1.03 ± 0.042
TCAACCCTTA	1.03 ± 0.038
TCAACGATAT	1.07 ± 0.075
TCAACTATTT	0.972 ± 0.031
TCAAGAGCTG	1.08 ± 0.072
TCAAGATGTG	0.99 ± 0.036
TCAAGATTGG	0.986 ± 0.023
TCAAGCGGGG	1.06 ± 0.09
TCAAGCTTTT	1.01 ± 0.017
TCAAGGGAAA	1 ± 0.058

Sequence	switch fluorescence ratio
TCAAGGGGAA	1 ± 0.019
TCAAGGTCCT	1.127 ± 0.0091
TCAATACGTT	1.09 ± 0.016
TCAATCATAT	0.982 ± 0.033
TCAATCGCTT	1.09 ± 0.026
TCAATCGGAA	1.06 ± 0.014
TCAATCTGTG	1.01 ± 0.066
TCAATGAATA	0.986 ± 0.02
TCAATGGTAT	1.17 ± 0.28
TCAATGGTGG	1.01 ± 0.028
TCAATGTGGT	1.016 ± 0.008
TCAATGTTTT	0.9846 ± 0.0031
TCAATTAGGC	1.05 ± 0.027
TCACACGGCG	1.13 ± 0.18
TCACACGTCG	1.02 ± 0.013
TCACAGATGG	1.02 ± 0.036
TCACAGTCTA	1.04 ± 0.058
TCACCAGGGG	1.76 ± 0.72
TCACCGAGGC	1.15 ± 0.07
TCACCTTGTT	1.03 ± 0.037
TCACGAGGCT	1.038 ± 0.0097
TCACGATTGG	1.02 ± 0.02
TCACGCCGGG	1.04 ± 0.019

Sequence	switch fluorescence ratio
TCACGGATGT	1.04 ± 0.012
TCACGGCTGG	0.971 ± 0.029
TCACGGGAAT	1.02 ± 0.055
TCACGGGGGT	1.17 ± 0.23
TCACGTTATG	1.11 ± 0.026
TCACTAGATC	0.998 ± 0.021
TCACTGGGTG	1.23 ± 0.035
TCACTGTTGT	0.993 ± 0.032
TCACTTATAA	1.02 ± 0.018
TCACTTATGG	1.03 ± 0.033
TCAGAAAGGG	1.021 ± 0.0059
TCAGAAGCGG	1.3 ± 0.1
TCAGAAGGCG	0.981 ± 0.015
TCAGAAGGGT	0.994 ± 0.03
TCAGAATCTA	1 ± 0.015
TCAGACATCG	1.01 ± 0.035
TCAGACTAGA	1.028 ± 0.0045
TCAGATGGGG	1.03 ± 0.021
TCAGATTAGT	0.968 ± 0.016
